Experimental findings from publication PMC3458539 (Nucleic Acids Research, 2012) are described below.

Series [1] deals with the molecule itself. As to the kind of experiment: native MS.
Series [2] deals with the molecule itself. As to the kind of experiment: SEC. For orientation: Size exclusion chromatography separates by hydrodynamic size, large species first.

B1: Vibrio cholerae Hfq (wild-type) (natural protein)
chain: MAKGQSLQDPFLNALRRERIPVSIYLVNGIKLQGQIESFDQFVILLKNTVNQMVYKHAISTVVPARPVSHHSGDRPASDRPAEKSEE
One may read the stoichiometry N as the number of molecules, sites or subunits per partner or assembly. B1: in series [1], the “stoichiometry N” value is 6.

B2: VcHfqK56A (proximal face RNA-binding mutant of Vibrio cholerae Hfq) (natural protein)
chain: MAKGQSLQDPFLNALRRERIPVSIYLVNGIKLQGQIESFDQFVILLKNTVNQMVYAHAISTVVPARPVSHHSGDRPASDRPAEKSEE
Turning to B2, the “stoichiometry N” value in series [2] was determined as 6.

B3: VcHfqY25D (distal face RNA-binding mutant of Vibrio cholerae Hfq) (natural protein)
chain: MAKGQSLQDPFLNALRRERIPVSIDLVNGIKLQGQIESFDQFVILLKNTVNQMVYKHAISTVVPARPVSHHSGDRPASDRPAEKSEE
As for B3, the “stoichiometry N” value in series [2] came out at 6.
